In the DeepSol protein solubility set:

Experiment: soluble on expression in E. coli; label from the status in PepcDB or PDB records

Row | Sequence | soluble on expression in E. coli
1 | MFKRTKLILIATILLSGCSTTNNESNNETKSVPEEMEASKYVGQGFQPPAEKDAVEFAKKHKDKIAKRGEQFFMDNFGLKVKATNVVGSGDGVEVFVHCDDHDIVFNASIPFDKSIIDSDSSLRSEDKGDDMSTLVGTVLSGFEYRAQKEKYDNLYKFFKENEKKYQYTGFTKEAINKTQNSGYENEYFYIVANIPTLQEYRKYYEPLIKKNNLNFKKGMKQARKGVGYKAAIEVHTTLFSRSSNFSKDKKLDDVIDLSESTKKLHLNFENTKIFLQLAKSTISTNRVNYSDNESIRIEVELEHHHHHH | soluble
2 | MFKRTKLILIATLLLSGCSTTNNESNNETKSVPEEMEASKYVGQGFQPPAEKDAIEFAKKHRKEFEKVGEQFFKDNFGLKVKATNVVGKDDGIEVYVHCDDHGIVFNASLPLYKDAIHQKGSMRSNDNGDDMSMMVGTVLSGFEYRAQKEKYDNLYKFFKENEKKYQYTGFTKEAINKTQNVGYKNEYFYITYSSRSLKEYRKYYEPLIQKNDKEFKEGMERARKEVNYAADTDAVATLFSTKKNFTNDNTEDDVIELSDKLYNLKNKPDKSTITIQIGKPTINTKKAFYDDNRPIEYGVHSKGELEHHHHHH | not soluble
3 | MFKSLSQLFRPRVEALGLEIGASALKLVEVSGNPPALKALASRPTPPGLLMEGMVAEPAALAQEIKELLLEARTRKRYVVTALSNLAVILRPIQVPKMPLKEMEEAVRWEAERYIPFPIDEVVLDFAPLTPLSEVQEGEQVQVMVAAARQEAVAGVLEALRGAGLVPVVLDVKPFAGLYPLEARLAEEPDRVFLALDIGAESTSLVLLRGDKPLAVRVLTLSGKDFTEAIARSFNLDLLAAEEVKRTYGMATLPTEDEELLLDFDAERERYSPGRIYDAIRPVLVELTQELRRSLEFFRIQLEEASPEVGYLLGGGSKLRGLASLLTDTLGVNFEPVNPWEAVAVDPKRFESEQLQEIGPEFAVALGLALRGVEPLD | soluble
4 | MFLFSELCRRLSPDAVRIVSDHRIVHLLTDSRTLSEPATTLFFALRTTSGDGHLYIRDLYDRGVRSFVISDPSKDLMEKMPQANWMRVAHPLDALQRIAALRRSMFDIPVIGITGSNGKTIVKEFLYQLLRKDYRIVRSPRSYNSQIGVPLSVWQMAEEHTLGIFEAGISQMGEMERLE | not soluble
5 | MFNLRPAATLVALAAALSSLPALAEEARYNQISLRAEVNQEVQRDLMLVTLYTEAQDSDPARLAAQITETLNKALGQARQVKDVKIRQGSRNSYPVYDDKGQKITGWRERAELRLESADFAVLSKLTGELLTDLKMGGMDFSISPSTRKTSEDALLKDAVTAFKARAQLVTEALGGKGYKLVNLNLNTSGYPQPYLRAPVMMMAKSSRDESAPTPDVEAGTSQVSVAADGVIEVAIPLEHHHHHH | soluble
6 | MFPFGHKGQKIKGTMVVMQKNVLDINSITSVDGIVGTGLDFLGSALDTVTFLASSISIQLISATKADGGKGKVGKATNLRGKITLPTIGAKEEAYDAQFDWDSDFGIPGAFYIKNYMQNEFYLKSLILEDIPNHGTIHFICNSWVYNSKHYKTDRIFFANNTYLPSETPAPLVKYREEELKNVRGDGTGERKEWDRIYDYDVYNDLGDPDKGEKYARPVLGGSALPYPRRGRTGRGKTRKDPNSEKPGDFVYLPRDEAFGHLKSSDFLAYGIKSVAQDVLPVLTDAFDGNLLSLDFDNFAEVRKLYEGGVTLPTNFLSNITPIPIIKELFRTDGEQFLKYPPPKVMQVDKSAWMTDEEFARETIAGLNPNVIKIIEEFPLSSKLDTQAYGDHTCIITKEHLEPNLGGLTVEQAIQNKKLFILDHHDYLIPYLRKINANTTKTYATRTIFFLKNDGTLTPLAIELSKPHPQGEEYGPVSEVYVPSSEGVEAYIWLLAKAYVVVNDACYHQIISHWLNTHAVVEPFVIATNRHLSVVHPIYKLLFPHYRDTMNINSLARKSLVNADGIIEKTFLWGRYSLEMSAVIYKDWVFTDQALPNDLVKRGVAVKDPSAPHGVRLLIEDYPYASDGLEIWDAIKSWVEEYVSFYYKSDEELQKDPELQAWWKELVEVGHGDLKDKPWWQKMQTREELVEASATLIWIASALHAAVNFGQYPYGGLILNRPTISRRFMPEKGSPEYDALAKNPEKEFLKTITGKKETLIDLTIIEILSRHASDEFYLGQRDGGDYWTSDAGPLEAFKRFGKNLEEIEKKLIEKNNDETLRNRYGPAKMPYTLLYPSSEEGLTFRGIPNSISI | soluble
7 | MFQMRLNLVIELRDAPGQLVSVLEPLGSTGVNIVTVIHERDREYGPVVPVQLTVEGDRETLDAAIGRLQEQGVNIIEMDGAPLREKFTTILIGDIAEGDLQETVEAVNSVQGASVLDLSLRMSEGRSAARITFEAEHGSRDEVLRRINEAAMERNLLLVSEV | not soluble
8 | MFREAELRNGLRVIAEVVPGARSVALGYFVKTGARDETKEESGVSHFLEHMVFKGPEDMDALAVNRAFDRMGAQYNAFTSEEATVYYGAVLPEFAYDLLGLFAKLLRPALREEDFQTEKLVILEEIARYQDRPGFMAYEWARARFFQGHPLGNSVLGTRESITALTREGMAAYHRRRYLPKNMVLAATGRVDFDRLLAEAERLTEAWPEGEAERAYPPLTPAFGVEERPYEKARALYLVALFPGVAYQEEARFPGQVLAHLLGEEGSGRLHFALVDKGLAEVASFGLEEADRAGTFHAYVQADPARKGEVLAVLQEELDRLGREGVGEEEVERAKTPLATGLVFAGETPMQRLFHLGMEYLYTGRYLSLEEVKARVQRVTSREVNALLERGFLEKGLYYLVLPHGA | soluble
9 | MFRLSALYRYPIKSSAAESLERVALDALGVVGDRRWMAVDTETGRFFTQRLLPQLGRIQARWAAPEVLRLNAPGMSELSLEVPAADANLRGVTVWRDTLQAPDAGDAAADWLTRFLGRP | not soluble
10 | MFRMPIVTMERVDSFSAAHRLHSEKLSDAENKETFGKCNNSNGHGHNYVWKVKLRGEVDPTSGMVYDLAKLKKEMSLVLDTVDHRNLDKDVEFFKTTVSTSENVAIYMFEKLKSVMSNPSVLYKVTIEETPKNIFTYKGS | soluble
11 | MFSEELEKIDWEETTKTIYSKTESDVLRALGKEHCDVDDFMALISPAAAKYLEPMAQLSKKYTEERFGKTISMFIPLYITNSCTNSCVYCGFHISNPMARTILTPEQIEDEYKAIKKLGPFENLLLVTGENPAKAGVPYLAKALDIAKKYFSNLKIEVMPLKAEEYAELKEHGLNGVICFQETYNKARYNIYHPRGMKSKFEWRVNGFDRMGQAGVHSIGMGVLIGLEEWRTDVTMMAYHLRYLQKKYWKTKYSVNFPRMRPAENGGFQPNVIMNDRELAQLTFAMRIFDHDVDISYSTREPAQIRDNMAGLGVTTMSAESKTEPGGYYTYPQALEQFHVSDERTAVEVEHALKSLGREPVWKDWDVSFDKFTPIR | not soluble
12 | MFSEELIKENENIWRRFLPHKFLIEMAENTIKKENFEKWLVNDYYFVKNALRFMALLMAKAPDDLLPFFAESIYYISKELEMFEKKAQELGISLNGEIDWRAKSYVNYLLSVASLGSFLEGFTALYCEEKAYYEAWKWVRENLKERSPYQEFINHWSSQEFGEYVKRIEKILNSLAEKHGEFEKERAREVFKEVSKFELIFWDIAYGGEGNVLEHHHHHH | soluble
13 | MFSVFEWILIFFGILNWFKFTQPSTPEPASRFFTRVCQQLRETVLIEIDSSGRVQPFVSIVEEGSKPYFSPHVGCAECMQWWDVYGEQPHRVEETEDQDTDEGVEEESEIEDSDFDDQITFVKPTTPAPLSPETENFIEDKMKFHFQATDIINEYLGKGTDMGIVSNLIRISQTYGVQLKQVSSGKSSMKEIEGILKSLQKEFEQEIEGLNGEISEAEENNESDIDESFEFVENLELDSDFE | not soluble
14 | MFTIKKATTNDIQLINEMAQIVFPATYREILSKEQLDYMMDWMYSPKNLRKQMEEEGHIYYIAYKDGEAAGYVSIQPEGEHLFHLQKIYVLPLFQGCRLGKALFEQAVKAIKEIHPGPCEMHLNVNRNNKALQFYQHLGMEKVAEGDFHIGNGYYMNDYIMGLKI | not soluble
15 | MFVDRIVLSFRGAGLERANTCLRKGQRLRKACSHVFRPLCSSDLPVNLPTDLETKRVMKPPLAERESIWSYPRPPRVEPNTRHLRVVHNQVTIAETRRGYRVLEYSHPPSYYIPLDDIDLQYVMVSSKVRSTFCEFKGEATYYDVEVGWEVSEGAAWSYDFPTRAYRMLKDHIAFYPAKVDACWVDEYRVRPEPRSFYGGWVTPLVKGVYPEEDVEDDEDSSGGDGKDSATQ | soluble
16 | MFVTQQLKLMGTVIDIQIESDKACQQLSRVIDLLYTYKNRFSANDSNSELMAINQAAGVKPVSVHSDLFNLIQIGKAHSLSTPSNLNIAIGPLVQAWRIGFEDARVPSHNLISQQLALTDPRQVLIDDKKQTVFLQQVGMALDLGALAKGYITDKIMAYLIEDGIDSALINLGGNVRVHGPNPKSPDKTFRIGIQKPDAKRGQHLGVIKVNNHSVVTSGIYERQFTSKGKQYHHILDRQTGYPIETDMLSLTIMAPSSFYCDIWTTRLFGLDSSMIITLLNTFDNIEGLLVTRKHHVLMSNGLRHYFQPYYH | not soluble
17 | MFVVAVANTKGGCGKTTLATHLAASFACRGYATGLADLDRQKSALGWLKRRPEGAAPIQGINLAREEDIPEGIERLVVDAAAAMDKDVVKDIVRRADLVVVPVLPGVFDEDGTARFVGHLESLKSIRKNRRDVAFVANRVRLNTRALTRLGGFLEELSFPVIARLRDTQHYTAAAAEGLSLFDLPGGRAADYRAEWTPLLDFIEIRVRG | soluble
18 | MGDDEARSWIRGDETAKQMLSRVLKDRAFLLIPPLHRVPLRAGNVVEITGASTSAKTQILIQAAISCILPKTWNGIHYGGLGKLVLFLDLDCRFDVLRLSQMLKHRLLQANWLGNGAWWQLEESNVKSCKSAEEKTKTVFDEELYASCMKRFLYVRCYDSLELLSSLKTLHYRIQQQEACGSQVGVLMIDSIGAFHWTDRLSSSLALETHNRKSLSLTNVVETIVQELKKLLLVHSLVVLATKGTIYEEKYPANENNRKVSSNDHFSGNVASKAQQPPFREFMPSSWQAFVTHKIIIRKSADYQSLQTGQQNLLAYSLEWLQPQLSRIDRFIVDDVRKLTTIKPFYSKLLLIYIVIPASSSHAVWYCHCLVT | soluble
19 | MGDIEDAPRIISGIGELDRATGGGFVRGSALLVGGDPGIGKSTLLTQAAAALASRGHRIVYVSGEEAVAQIRLRAQRLGVADSPVELAAETNVEDILATIADGKRPDLVILDSIQTLWTDLADSAPGTVTQVRAAAQAMIRYAKSTGAAIVLVGHVTKEGQIAGPRVVEHMVDGVLYFEGEGGHHYRILRTVKNRFGLEHHHHHH | not soluble
20 | MGDTTFLIEFDHPAAVYSPGQNVAGKLTIRNRNALNALALKICIHGDIETLWRKFENKGRYDRHGRWYRSSEHINYTSKINVLEGIAQPWSSIENANNKIPGGVNIFPFLFQLPANLPPSFEGTHGNVRYSVHVELDRPWRMNVEAKRVFSVIPVIDLNSIPKTINPMIVSSCKHSGLFSNKEVKVKISIPKSGYIPGETIQVSALIQNHTKKPIYSIKAKLEQHVHYQAQQENSHLFPEEHCHKHCEHKTAQTTMSKVEKSCHVEFCSNSQINVPLVLPNQLVPSFRTGIIEVDYCIIVDIGENKKLRCELPITVGTIPIGVFTRPIAYSITEAPPKYENFSQIVEDSQASAPPPEYENEEHF | not soluble
21 | MGEAAYVTVSALTKYIKRKFDVDPHLENIWIKGELSNVKIHTRGHIYFTLKERKGRMQSVMFARQSERLPFKPENGMKVLVRGGISVYEPSGNYQLYAKEMQPDGVGALYLAYEELKKKLAGEGLFDDRYKKQIPAFPATIGVVTSPTGAAVRDVITTLKRRYPLVKVIVLPALVQGENASRSIVTRIEEANEKEICDVLIVGRGGGSIEELWAFNEEIVARAIFASNIPIISAVGHETDFTISDFVADIRAATPTGAAEIAVPHTTDLIERTKTAEVRMTRAMQQHLGQEKGRIQTLQSSYAFRFPKRLYAQKEQQFDLAYQQFQAQLTALLDRKSRQLERETYRLEALHPHEQLKQARTRYQEQTNQLRKNMNIQMKQLHSQFQTVLGKLNALSPLQVMERGYSLAYKEDKLIKSVSQIEEQDRLEIKLKDGVLTCEVLEKRGEEK | not soluble
